The assay addresses T1, Flag-IRF3 (human, UniProt Q14653 1-427).
T1 construct: not shown: Flag, N-terminal, kept
T1 sequence (looked up): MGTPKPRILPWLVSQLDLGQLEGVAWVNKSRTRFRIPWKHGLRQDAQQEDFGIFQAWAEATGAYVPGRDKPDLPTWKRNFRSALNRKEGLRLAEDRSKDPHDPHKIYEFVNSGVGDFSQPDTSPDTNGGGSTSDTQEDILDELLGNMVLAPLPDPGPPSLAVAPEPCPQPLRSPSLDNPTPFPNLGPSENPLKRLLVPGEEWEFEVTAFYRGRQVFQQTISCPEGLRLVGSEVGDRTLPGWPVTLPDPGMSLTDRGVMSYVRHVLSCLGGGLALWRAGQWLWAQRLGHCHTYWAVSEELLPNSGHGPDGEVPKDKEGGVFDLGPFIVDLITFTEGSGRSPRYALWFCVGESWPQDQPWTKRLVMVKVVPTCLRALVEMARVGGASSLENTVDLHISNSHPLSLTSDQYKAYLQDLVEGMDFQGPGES
The experiment in a line: pull-down; lysates of 293T cells with ectopic Flag-TBK1 or Flag-IRF3 incubated with GST or the GST-ERRα fusion protein. The settings on record: one partner purified.

The values that follow come from publication PMC5476288 (PLoS Pathogens, 2017).

B1: GST-ERRα fusion protein (natural protein, UniProt P11474 1-423, looked up)
chain: MSSQVVGIEPLYIKAEPASPDSPKGSSETETEPPVALAPGPAPTRCLPGHKEEEDGEGAGPGEQGGGKLVLSSLPKRLCLVCGDVASGYHYGVASCEACKAFFKRTIQGSIEYSCPASNECEITKRRRKACQACRFTKCLRVGMLKEGVRLDRVRGGRQKYKRRPEVDPLPFPGPFPAGPLAVAGGPRKTAAPVNALVSHLLVVEPEKLYAMPDPAGPDGHLPAVATLCDLFDREIVVTISWAKSIPGFSSLSLSDQMSVLQSVWMEVLVLGVAQRSLPLQDELAFAEDLVLDEEGARAAGLGELGAALLQLVRRLQALRLEREEYVLLKALALANSDSVHIEDAEAVEQLREALHEALLEYEAGRAGPGGGAERRRAGRLLLTLPLLRQTAGKVLAHFYGVKLEGKVPMHKLFLEMLEAMMD
notes: also called estrogen-related receptor α
As for B1, the binding result is given as “binds”.
